How the values were obtained:
ZNF827 ZnF4-9 deleted = biological target: T1, ZNF827 ZnF4-9 deleted (Homo sapiens); experiment: EMSA; 0.8 mM ZnCl2, 100 mM KCl, poly(dI:dC), on ice; conditions: tags: HaloTag (pHTN), expressed in HEK 293T, tag removed by HaloTEV cleavage; label: 32P (gamma)
T1 chain: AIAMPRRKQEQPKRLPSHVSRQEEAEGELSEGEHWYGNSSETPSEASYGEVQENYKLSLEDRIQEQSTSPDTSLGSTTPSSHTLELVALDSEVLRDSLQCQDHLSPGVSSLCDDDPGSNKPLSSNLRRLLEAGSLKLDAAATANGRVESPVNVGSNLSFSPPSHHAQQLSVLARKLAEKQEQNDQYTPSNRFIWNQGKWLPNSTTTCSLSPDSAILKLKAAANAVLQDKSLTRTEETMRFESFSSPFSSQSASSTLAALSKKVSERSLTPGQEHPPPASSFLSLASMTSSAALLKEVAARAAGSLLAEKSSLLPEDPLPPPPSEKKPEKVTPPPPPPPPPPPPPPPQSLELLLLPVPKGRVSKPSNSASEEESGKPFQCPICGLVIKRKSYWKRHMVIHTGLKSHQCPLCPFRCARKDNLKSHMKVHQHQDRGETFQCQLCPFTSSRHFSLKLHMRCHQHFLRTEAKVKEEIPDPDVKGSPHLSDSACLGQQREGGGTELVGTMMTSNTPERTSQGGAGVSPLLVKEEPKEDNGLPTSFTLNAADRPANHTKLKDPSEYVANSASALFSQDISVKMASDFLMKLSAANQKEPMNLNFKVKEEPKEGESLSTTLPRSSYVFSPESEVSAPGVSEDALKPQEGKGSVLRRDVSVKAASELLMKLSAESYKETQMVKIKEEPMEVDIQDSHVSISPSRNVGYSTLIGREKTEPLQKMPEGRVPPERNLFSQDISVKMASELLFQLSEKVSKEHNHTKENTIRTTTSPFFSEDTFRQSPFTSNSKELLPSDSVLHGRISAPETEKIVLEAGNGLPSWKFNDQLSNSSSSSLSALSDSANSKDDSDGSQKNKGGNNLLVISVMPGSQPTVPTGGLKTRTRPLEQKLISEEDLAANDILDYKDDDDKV
Experimental: (§1) Purified proteins were quantified using a BCA assay using the Pierce™ BCA Protein Assay Kit according to the manufacturer's instructions. Equal amounts of purified proteins were incubated in binding buffer (20 mM HEPES-KOH, pH7.9, 100 mM KCl, 0.8 mM ZnCl₂, 0.2 mM EDTA, 5% glycerol, 0.5 mM DTT and 0.5 mM PMSF) with 6.25 μg/mL poly (dI:dC) and 50 ng/μL BSA on ice for 20 minutes. ˜0.12 nM (˜2.5 fmol) γ-³²P labelled DNA oligonucleotide (see Table 3) probes were added to samples and incubated on ice for another 30 minutes. Binding reactions were loaded onto an 8% native acrylamide/bisacrylamide (19:1, Biorad) gel pre-run at 100V in 0.5× TB buffer (89 mM Tris, 89 mM boric acid) for 20 minutes. Gels were electrophoresed at 150 V for 150 minutes at 4° C., dried at 65° C. for 45 minutes, and then exposed to a Phosphor screen overnight. Gel images were obtained by scanning the screens with a Typhoon FLA9500 Imager (GE Life Sciences).

ZNF827 full length = biological target: T2, ZNF827 full length (Homo sapiens, UniProt Q17R98 SEQ:1-1081); experiment: as above; conditions: tags: HaloTag (pHTN), expressed in HEK 293T, tag removed by HaloTEV cleavage; label: 32P (gamma)
T2 sequence: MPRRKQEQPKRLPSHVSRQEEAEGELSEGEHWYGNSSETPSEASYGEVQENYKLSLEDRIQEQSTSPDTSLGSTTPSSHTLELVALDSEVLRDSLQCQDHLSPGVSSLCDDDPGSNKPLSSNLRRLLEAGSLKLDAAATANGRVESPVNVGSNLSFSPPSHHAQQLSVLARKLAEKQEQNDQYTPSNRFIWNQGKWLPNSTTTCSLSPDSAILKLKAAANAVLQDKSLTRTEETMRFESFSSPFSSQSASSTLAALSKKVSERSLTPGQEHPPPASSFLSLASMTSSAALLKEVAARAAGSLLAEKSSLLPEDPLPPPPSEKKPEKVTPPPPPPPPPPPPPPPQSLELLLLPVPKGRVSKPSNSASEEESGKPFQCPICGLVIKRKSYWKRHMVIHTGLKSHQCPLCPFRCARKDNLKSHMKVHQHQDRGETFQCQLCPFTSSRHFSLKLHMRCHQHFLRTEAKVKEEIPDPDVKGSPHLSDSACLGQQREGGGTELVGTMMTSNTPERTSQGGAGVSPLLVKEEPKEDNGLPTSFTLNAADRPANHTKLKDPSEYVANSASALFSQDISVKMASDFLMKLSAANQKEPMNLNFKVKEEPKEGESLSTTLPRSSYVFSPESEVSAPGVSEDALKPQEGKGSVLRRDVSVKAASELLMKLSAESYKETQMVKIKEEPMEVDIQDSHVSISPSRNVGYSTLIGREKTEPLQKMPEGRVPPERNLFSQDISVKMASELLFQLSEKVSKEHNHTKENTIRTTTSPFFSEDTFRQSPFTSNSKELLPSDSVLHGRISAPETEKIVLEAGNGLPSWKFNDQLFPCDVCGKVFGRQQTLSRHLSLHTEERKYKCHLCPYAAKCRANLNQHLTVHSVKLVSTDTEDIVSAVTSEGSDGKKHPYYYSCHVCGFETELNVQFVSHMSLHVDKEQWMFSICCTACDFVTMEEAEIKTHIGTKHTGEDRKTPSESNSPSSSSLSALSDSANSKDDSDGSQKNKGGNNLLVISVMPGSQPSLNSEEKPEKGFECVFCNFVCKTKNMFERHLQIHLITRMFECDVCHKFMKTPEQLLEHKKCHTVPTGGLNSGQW
Experimental: as §1

TTAGGGTTAGGGTTAGGG (ssDNA) [ss telomeric G rich oligo]
binding result (ZNF827 ZnF4-9 deleted): binds | binding result (ZNF827 full length): binds
